Data taken from PMC6458997.
Where a chain is given by its changes, count along the chain named.

What was measured:
AimR N202A (SPbeta) = biological target: T1, AimR N202A (SPbeta) (Bacillus subtilis phage SPbeta (cloned …, UniProt O31927 1-386, N202A)); assay: EMSA; apo; WT probe assumed; EMSA: 50 mM HEPES pH 7.5, 5 mM MgCl2, 75 mM NaCl, 0.5 mM EDTA; 0.4 uM DNA, 4 uM AimR; 10 min at room temperature; 8% PAGE in TBE at 4 C or agarose in TAE at room temperature; conditions: protein: recombinant; tags: N-terminal 6xHis-TEV, cleaved (as WT); chain copies: 2
T1 sequence: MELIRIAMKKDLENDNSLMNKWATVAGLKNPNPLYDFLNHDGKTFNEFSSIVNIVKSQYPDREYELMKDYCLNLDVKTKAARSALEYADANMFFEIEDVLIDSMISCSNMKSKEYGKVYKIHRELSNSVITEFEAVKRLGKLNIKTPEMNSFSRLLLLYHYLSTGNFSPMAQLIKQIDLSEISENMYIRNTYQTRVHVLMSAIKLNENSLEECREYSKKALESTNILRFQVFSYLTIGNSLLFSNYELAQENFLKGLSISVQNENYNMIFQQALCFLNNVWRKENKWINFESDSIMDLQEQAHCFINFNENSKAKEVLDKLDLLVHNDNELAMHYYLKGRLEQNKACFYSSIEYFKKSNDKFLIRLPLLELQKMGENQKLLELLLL

AimR D360A (SPbeta) = biological target: T2, AimR D360A (SPbeta) (Bacillus subtilis phage SPbeta (cloned …, UniProt O31927 1-386, D360A)); assay: as above; conditions: protein: recombinant; tags: N-terminal 6xHis-TEV, cleaved (as WT); chain copies: 2
T2 sequence: T1 sequence with A202N, D360A

B1: SPbeta operator WT 45 bp (dsDNA)
DNA 1: GTTGATCACTAGATGTTATTAAAACCTAATATTTAAGTGATGGCC
DNA 2: GGCCATCACTTAAATATTAGGTTTTAATAACATCTAGTGATCAAC
B1: binds (AimR N202A (SPbeta)); no binding (AimR D360A (SPbeta)).
